In US5985822A, “Inhibition of glial cell proliferation with N-CAM homophilic peptides” (The Scripps Research Institute, priority 1995, dated 1999):
Where “and” joins values, the source holds several entries; their conditions need not be identical. Identical values can stand only once.

Tests used:
[1] = tested on: dividing astrocytes in cerebral cortex, hippocampus or striatum; test: In vivo labeling index of dividing astrocytes (BrdU with GFAP or S100) after stab lesion with infusion; set-up: species or system rat; settings: for Labeling Index (Experimental): N-CAM 250 μg/ml, 3rd Ig domain 5 mg/ml, N-CAM peptide 1 mg/ml, 3 μl infused, n=3
Protocol: Samples were injected into the brains of rats (Wistar Albino, Male, 200-250 g, Charles River, anesthetized with xylazine (12 mg/kg) and ketamine (90 mg/kg) through a 26 gauge needle. The needle point was placed at the stereotactic coordinates of either the hippocampus, cerebral cortex or striatum (Table 2). Bilateral injections of 3-4 μl were made using an Hamilton syringe. Each animal received an infusion of either the purified rat N-CAM (250 μg/ml), the third Ig domain of chicken N-CAM (5 mg/ml), or the rat N-CAM peptide KHIFSDDSSE (SEQ ID NO 2) (1 mg/ml) in PBS into one hemisphere; the other hemisphere was infused with the random peptide (SFSISDEDHK (SEQ ID NO 9), 1 mg/ml in PBS) as a control. The experimental and control sides varied between animals and choice of side had no significant effect on the results. Three μl of each protein or peptide was infused at a rate of 0.2 μl per minute after which the needle was left in place for 5 minutes and then removed. In one experiment, a group of animals received basic fibroblast growth factor (bFGF, 450 ng) in the solutions which contained either the random peptide or the purified N-CAM.
The samples were either purified N-CAM in phosphate buffered saline (PBS), N-CAM peptide KHIFSDDSSE (SEQ. ID. NO. 2) (1 mg/ml or 10 mg/ml) in PBS, or the corresponding random peptide SFSISDEDHK (SEQ ID NO 9) (1 mg/ml) (see Example 3 above). The injection rate was about 0.2 μl/min; the needle was left in place for 5 minute after the injection. Each animal received either the purified N-CAM or the N-CAM peptide injected into one side of the brain and the corresponding structure on the other side was injected with the random peptide as a control.
Three animals were examined for each treatment and brain region described. Animals were maintained for a postinjection survival time of about 70-72 hours. During that time they received five injections of bromodeoxyuridine (Brdu) dissolved in 0.007 N NaOH (120 mg/kg, intraperitoneal). Two of the three animals that had been injected in the hippocampus received Brdu approximately 18, 28, 42, 52, and 70 hours after the stereotactic surgery. All of the animals that had been injected in the cerebral cortex or the striatum and one animal injected in the hippocampus received Brdu approximately 2, 18, 28, 42, and 52 hours after the stereotactic surgery.
Animals were perfused under anesthesia with about 30 ml of ice-cold PBS followed by about 400 ml of ice-cold […] in PBS. The brains were then removed and postfixed for 2-16 hours in 4% paraformaldehyde in PBS then placed in succeeding solutions of ascending concentrations of sucrose (12%, 18%, and 24%). The brains were then sectioned on a cryostat at a thickness of 10 μm.
Non-specific binding on the sections was blocked by incubation in 8% fetal bovine serum (FBS) in PBS. Sections were then incubated in polyclonal antibody to glial fibrillary acidic protein (GFAP; 1:100 dilution, Dako) in 0.2% Triton X-100, 8% FBS/PBS for 24 - 48 hr at 4° C. The sections were processed using a biotinylated secondary antibody and the Vectastain ABC kit (Vector), and stained with a diaminobenzidine peroxidase substrate kit from Vector or Pierce. The sections were then incubated for 6 minutes in a solution of Proteinase K (Dako), rinsed and incubated in 2 N HCL for 20 minutes at 37° C. The sections were rinsed and blocked in 8% FBS/PBS and incubated in a monoclonal antibody to Brdu (1:40 dilution, Dako), 0.01% Triton X-100, 8% fetal bovine serum/PBS for 24-48 hr at 4° C. The sections were processed using a biotinlyated secondary antibody and the Vectastain ABC kit (Vector), and stained with a VIP peroxidase substrate kit from Vector giving the Brdu positive cells a red color. The sections were then rinsed in PBS and coverslipped in glycerol/PBS.
GFAP positive cells and cells positive for both GFAP and BRDU were counted under a Zeiss Axiophot light microscope. […]

[2] = tested on: rat forebrain astrocytes in primary culture; test: Astrocyte proliferation assay ([3H]-thymidine incorporation normalized to [35S]-methionine); assay type: cell-based; settings: for inhibition of proliferation depending on cell density: 2 μg/ml N-CAM
Protocol: Primary cultures of astrocytes were prepared from the forebrains of 4-5 day old neonatal rats. After decapitation and removal of the forebrains from the skull, the meninges were carefully peeled off, and forebrain tissue was triturated in sterile phosphate buffered saline (PBS) using firepolished pipettes. The resulting suspension of tissue fragments was incubated in Hank's balanced salt solution (Gibco BRL) with 2.5 mg/ml trypsin, 1 mM EDTA and 0.1 mg/ml DNase (Boehringer) at 37° C. for 15 minutes. […] The pellet was resuspended in serum free medium (SFM) consisting of Dulbecco's Modified Eagle Medium (D-MEM), 2 mM L-glutamine, 50 U/ml penicillin G sodium and 50 μg/ml streptomycin sulfate (all from Gibco BRL) supplemented by 10% (vol/vol) fetal bovine serum (FBS). The cells were transferred to a standard 100 mm tissue culture dish (Falcon) and incubated at 37° C. for 1-2 hours. After mild shaking, the supernatant containing unattached cells was transferred to a 100 mm collagen-coated dish. […] Cell samples were checked regularly for the expression of GFAP, a marker for astrocytes.
After cell attachment, the culture medium was exchanged for SFM. In antisense experiments, oligonucleotides were added at the same time (T=0). […] After another 12 hours (at T=60), [^3 H]-thymidine (New England Nuclear, 20 Ci/mmol) was added (0.38 μM, 10 μCi/ml). Following an additional 12 hours (T=72), the wells were drained, counts precipitated by ice-cold […] trichloroacetic acid, and the plates left to dry. Counts were solubilized overnight by adding 100 μl 1 N KOH to each well, neutralized with 100 μl 1 N HCl, transferred to liquid scintillation vials and counted in 3 ml of Beckman Ready Safe liquid scintillation cocktail on a Packard 1600 TR counter. […] In this paper, proliferation is expressed as [^3 H]-thymidine incorporation normalized to [35]-methionine incorporation and calculated as [^3 H] dpm/ [35] dpm.

B1: N-CAM: neural cell adhesion molecule purified from early postnatal rat brains by affinity chromatography, mainly polysialylated embryonic form (protein, UniProt P13596 20-858, looked up)
Neural cell adhesion molecule …: LQVDIVPSQGEISVGESKFFLCQVAGDAKDKDISWFSPNGEKLSPNQQRISVVWNDDDSSTLTIYNANIDDAGIYKCVVTAEDGTQSEATVNVKIFQKLMFKNAPTPQEFKEGEDAVIVCDVVSSLPPTIIWKHKGRDVILKKDVRFIVLSNNYLQIRGIKKTDEGTYRCEGRILARGEINFKDIQVIVNVPPTVQARQSIVNATANLGQSVTLVCDADGFPEPTMSWTKDGEPIENEEEDDEKHIFSDDSSELTIRNVDKNDEAEYVCIAENKAGEQDASIHLKVFAKPKITYVENQTAMELEEQVTLTCEASGDPIPSITWRTSTRNISSEEKASWTRPEKQETLDGHMVVRSHARVSSLTLKSIQYTDAGEYICTASNTIGQDSQSMYLEVQYAPKLQGPVAVYTWEGNQVNITCEVFAYPSATISWFRDGQLLPSSNYSNIKIYNTPSASYLEVTPDSENDFGNYNCTAVNRIGQESLEFILVQADTPSSPSIDRVEPYSSTAQVQFDEPEATGGVPILKYKAEWKSLGEEAWHSKWYDAKEANMEGIVTIMGLKPETRYAVRLAALNGKGLGEISAATEFKTQPVREPSAPKLEGQMGEDGNSIKVNLIKQDDGGSPIRHYLVKYRALASEWKPEIRLPSGSDHVMLKSLDWNAEYEVYVVAENQQGKSKAAHFVFRTSAQPTAIPANGSPTAGLSTGAIVGILIVIFVLLLVVMDITCYFLNKCGLLMCIAVNLCGKAGPGAKGKDMEEGKAAFSKDESKEPIVEVRTEEERTPNHDGGKHTEPNETTPLTEPEKGPVETKSEPQESEAKPAPTEVKTVPNEATQTKENESKA
modifications: polysialylated embryonic form
[1]; cerebral cortex
  Percent Difference of labeling index, experimental vs control: -52.1 ± 4.5%
  Labeling Index (Experimental): 10.2 ± 1.5%
[1]; cortical lesion, bFGF 450 ng co-infused
  effect on mitogenic effects of bFGF in vivo: able to oppose the mitogenic effects of bFGF
[1]; hippocampus
  Percent Difference of labeling index, experimental vs control: -25.2 ± 1.6%
  Labeling Index (Experimental): 14.6 ± 2.3%
[1]; infusion into cerebral cortex at 100 μg/ml
  inhibition of astrocyte proliferation: 0-10%
[1]; striatum
  Percent Difference of labeling index, experimental vs control: -20.8 ± 2.1%
  Labeling Index (Experimental): 20.7 ± 0.7%
[2]; higher cell density 28×10^4 cells/cm^2, confluent
  inhibition of proliferation depending on cell density: virtually ineffective
[2]; lower cell density 1.8×10^4 cells/cm^2
  inhibition of proliferation depending on cell density: Inhibition was maximal
[2]; N-CAM 2 μg/ml, parallel control of each drug experiment (Table 5)
  N-CAM Alone: 32.5 % of SFM Control and 34 % of SFM Control
[2]; N-CAM 10 μg/ml in SFM, 7×10^4 cells/cm^2, three preparations
  maximal suppression of proliferation: > 90%
[2]; added to astrocyte cultures in SFM
  effect on astrocyte proliferation (in words): inhibited their proliferation in a concentration dependent manner
[2]; with 1% FBS or 20 ng/ml bFGF
  suppressive effect of N-CAM added together with growth stimulus: suppressive effect similar in magnitude to that observed in SFM
